Assay results reported in the domain aggregation screens of Martell et al. (2025).

Assay: soluble fraction after stress (log2 fold change); higher = more stays soluble; pooled small domains, quantitative proteomics
Conditions: stress: pH 4
Outline: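 High-throughput quantitative proteomics was run on pooled custom libraries of small protein domains following pH 4 stress. Fold changes are on a log2 scale; higher values mean more of a domain remained soluble. The fold change in soluble amount is taken as a measure of aggregation propensity.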

| Sequence | soluble fraction (log2) |
| --- | --- |
| HMYTPDYLSDLMVRMAHHSTAIEGNTLTQGETKSVLVDGYIPRAMDMRELNEVLNYKAFMTFLVE | -0.35 |
| HMSSQWWYSAGGERKGPVDFATLRGLYVQGAIDGRTLAWREDMQGWEAVNDIPDLEPLRRAVPPEL | 0.11 |
| HMVVVLPGETIKIDLIREGKDKQALGYLEDGTMIVVDNAKHLIGKNVEIEIDNVLPKEAGRVIFASLHGA | -0.942 |
| HMIGVIVDEVDPDSSLKSGDIITEVNREVILNIDDFVGLVEQIQKTGRSSLLLKILRDKKSLWVTIQFV | 0.22 |
| HMKLRYRTQEELLGVAREYRRRGLPLSVIVIDFYHWTKFGDWKFDPAYWPDPVGMVRELRDMGVEAAV | 0.22 |
| HMADTFVMPDLVYRRYEPVRGYFERGGFHMGAVKFEPYEGISDGTILRQNPLPGHPLRRRDVISLVVAAS | -0.464 |
| HMHKREKSFFETIYDDIPGIGKKRRVQLLSAYPTLDSLKSVTLEELKQIVPEESAKLILEKRDSR | 0.407 |
| HMNKPKIIINSVDDSVFSDYVKDSLSIAEVARSIGIDNNKINTSVYREIHKRIDSLKLDTSHFTGGAWN | -0.634 |
| HMNEAVVVPDVKGLTLDEADEFFKNSKLRYNVVDSVFSKDVAPGAIVELVPVAGSKVKENRIVFVTINAQ | -0.517 |
| HMESEIYKKIEKSRLLELAFTKSQKGDLTGAYDLYYQAFTKYDVIADNQNRYFEDFISLIRRKQQQD | -0.822 |
| HMLQLDATDRALIVATQGGLPLVPRPYQVVGEQLGISGEEVVARLRALLDAGVIRRIGAVPN | 0.327 |
| HMDWPDDETIARIYALIKSDISSQARKVMELRFSEGMPFARIAAAMGISETAVYRHLSHALTVIRQKLN | -1.24 |
| HMVELRDGSLPLARGSVGDLVAEVQRKLGVAADGIFGPQTERAVRAFQARAGLASDGIVGPLTWSALFGA | 0.117 |
| HMSESEDFQNRWRPWRSLLDDETPVVREALVDQLKLFPEEGRLFLQQMSEEDDPISARHAFELIKSLGW | -1.11 |
| HMNETVTNQTVLDLLKEGFTSEEIIGAIENSSTRTITYDINFMRQLKAAGADVTLTTYLQKIAKKDM | -0.711 |
| HMTTARERVYKTLQQWIVNGTLLPEERLNDVELARYFSVSRTPVREALQMLAEQKLVKMVPSSGTFVA | -0.0644 |
| HMQIYLTPEQFKIIDFMEQMGKITVKDVMDILNIPKRTAQLHLQKLKTLKMIAQTGKGPSSAYLL | -0.797 |
| HMYMWQVEDLLRANELDIENIKKTIIDHYQLDDAQKSELTRWYEDLINMMRLEGVTKEGHLQINK | -1.75 |
| HMRKSAVSSTLTSIEGIGATRAKALLKHFKTVAAVSEADLKELEDAPGMTRPSALRVYEYFHGK | 0.0795 |
| HMISQATMEKMGLTNRERQLVDFIVRGASNQEISEKMFISINTVKIHVSNIFRKAGVRSRTELMDKYP | -0.693 |
| HMVEAIDQALIEKQIQAVLQENSAAVKKYQAGKTEVLAFLIGQSMRKIAKKVDANLVKNILLEQLKNK | 0.077 |
| HMHETMGQIIKRLRKERGLTQESLAERLGVTFQAVSKWETDAGMPDVSQIVPLANAFGVRTDVLFGLEGRD | 0.187 |
| HMDAMLSEQLREKRGELLIEVDAIAGNALRWATLSAEQQDAWAVYRQALLDVPQQAGFPNDVVWPINPN | -0.982 |
| HMGKREKTKVANRQAILVAARAVFAELGYEAATVRDIIRGTDLASGTFYNYFKSKEEVFDALADDGA | -0.79 |
| HMHSKQRDAIFENLRSRKDHPTAEEIYLSLKPAMPAISLATVYRNLAQLENEGLILRLGSGGSARYDGDT | 0.164 |

| Sequence | soluble fraction (log2) |
| --- | --- |
| HMWTIDPLDWKTENADQIVEKVMSEAKENAIILLHDRYEASVEAALRIVDLLKEQGYTFVTADKLV | -0.421 |
| HMRQPRGQRVTVREASSLLPFLFAHLTDRSRSAVKSLLRHGQIWVNGRVTTHFDMPLRPGDTVLISHERG | -0.233 |
| HMLSAEAAAARTAISTLSEDQQRVLGLSIQRGLVHEQIARATGLPLGTVKTHIRRGLIKVREALEAQAAG | 0.0049 |
| HMEFTVFMNSAGGSKLQVVKTVKELTGLGLKEAKAIVDGSPGPVKEGLSKADAEAMLAKLQEAGADVEL | -0.117 |
| HMEENNIVIYITGAVKKEGIYEIKENSRISDAIEAAGGLLENANIKDINLAYIIEDGVKIYIPTNEEVNK | -1.35 |
| HMKPEQIELTFSGTTAMRLDKFLAENQPGLSRAKLQAIISSGSVEVNGKVITKQAFKLDPGDLVKALIPE | ≥ 0.43 |
| HMQLPTNAAAILRYLSSGAVKGVGSATAVRIVEKFGEETLNILEQDPLRLAEIRGISRDKAKKIGEDFASQ | 0.0714 |
| HMVITDPFFLEPENLVKDAVALMEKYRISGVPITKKGKLVGILTNRDLRFESNYEQPIANVMS | -0.363 |
| HMREGIQLGDPVRVIRDPLFGKIGAVSGLPSELRAIPTESEVRVLEVRFPDGTTTVVPRANIEVIEG | -0.229 |
| HMVLENLKKFIDSKGISVSAFEKSIGMSNNSFRKSLNSGGHIGSDKLENILKIYPELNPVWLLQGEGEML | -0.0839 |
| HMRPPLRAAIIDHLARDWHTVAELARLLPASGAHVSRLVVELRAVGAVDERISHPDWPGNRPTEYRLRRA | -1.05 |
| HMKLHQDLQIKVIDAANNKVEFIDTATGTSLATRTLDVNGVSKARGFEATLYGVVEDNDVFHIA | -0.116 |
| HMDLLAESLTRREAEVAALAARGLTNRAIAELFGLSVRTAETHLHRAMGKLGANRREDLLLHADRLDPG | -0.618 |
| HMEKSSALRAKEAFMALYHDGKFKPGTKIPSESNMAELLGVSRETWRKALALLRGDGVLYSKHGSGTYLLE | -0.0262 |
| HMNSRTLAYSDFIRKVDKGEVSAVVIDGEQVQVQTKDGQTFVTIQPQSEQMNDKLVEQLIAKDISVKAERQ | 0.0565 |
| HMANSLLVTAQAGGQKLFNFLKRSLHAENNEIHRWIRTGQVRINKKRTKAFDIVHENDEIRIPPFALNR | -0.053 |
| HMATEYIIPTVTNKKLEEAIGIAQLRGFEISVDEYKPSDIDEGTVLEQSPAAGTNAKQGDTISVTVSSG | -0.103 |
| HMSQTVKYVNTTSGLNMRTGPATSYAKITTIAYGQSVNVLSTSNGWSKINYSGSTGYVSSQYLQSKKPS | 0.183 |
| HMRASVTYVVQVNGKLRGKLEVAPDIDPEELKKLALEVENVKHSLQGWTVKKVIVIPGKMVSIAAGK | -0.296 |
| HMTPDLSEFKERLRQILPGEPIEVRTANDGIVLSGTVTSIAALDRALDLAERYAPDKVSNLLSVG | 0.365 |
| HMTDIDATSIERAVAKRRHFFLSNIQDLTMKMARRLIEKDLGLAPKHLDAAPFKTRITELVDAVIALGD | -0.484 |
| HMKDDLTWSEGLMPNVVGMGLRDAMFMLENSGLRVNYSGRGKVTRQSPQPGVRIKRGATVAIELRL | 0.0273 |
| HMVEPLIVRNFSINYADIDKLETKIKDYISNSDKSGVNRGRVTSDTRTNMLIVTETASKLAQVEQLLKALD | -0.591 |
| HMIKIDESTLSEDELKIFEILKIEDKNIENIAIESKILPGKLLATLMNMEMKKIVVQYPGKVFGLNRKLK | 0.0566 |
| HMEVFGDTKEEQMIIDILKLGITDLEHLQAKSMLEPAIFSQTLTMLEISGKIRPLGAGHWTL | -1.49 |

| Sequence | soluble fraction (log2) |
| --- | --- |
| HMANLDSLIKKVGQYAKDKQSISVDGIKKDLSIDKDMVKEALAELLKIGVVDKPDEAGQYKVIM | 0.0802 |
| HMIKNDIGKFIKLYRETHQWSQRELAEHLGVSQRNVSYYEKGERIPPADVLKKLSTLFDVPVDVLLGLK | -0.274 |
| HMSKSIELMNEIKKYIEEYYLQYRQSPSTTKIAEAVGIARGTAYKYLVEMSERNMIEYDGQEISTEVTRKY | -0.381 |
| HMALSGTVQNFAGGIMILIFRPFKTGDYIEALGYFGKVSEVNIVSTKLRTFDNKTIILPNGALSNGNIQNY | -0.775 |
| HMETITDRLNRRSLELNVSQADIIRTTGAGRGTVSGWFSGANAPSAKYLESLAVALKTSTTWLLSGKD | 0.0972 |
| HMATPKYMELVRWINEQIESKNLVPGQKMYSENTLKEMFGVSRQTVRHAIGVLENEGVIRRIQGSGTYIN | 0.163 |
| HMVTVNAFGKSGPEPAAMTKEALAKGADEVRVIVDSPTAAASVRDFLIGAGLRVQLQDDEGQLIVVGEKK | 0.344 |
| HMAVIILDEPTLGLDPAVRISLWQAIQSARDSTMSAFLITTHYIKEVADYLSAVKILDHGREVASGNPSAL | -0.905 |
| HMKPVSEMDNMEWVREQYFQNMIYEIGEWVKDKKTGIVGEIVKRGTNYVTIVQEDFSLHKIWLEDLETTE | -0.368 |
| HMADLIIMSSDATEKQVDKVINKIKNMGFNVNISKGTEKTIIGIIGDTRGISDEVFKIMPGVIEVISILRD | -0.38 |
| HMENRILLSEDSLKHLAQDIPIDIIEKLSVLKDQIYHRYDDFNSIVQGLLGGENYLKYKDNILSFVEQ | -0.311 |
| HMLPIMDRLITAGISINTAKKWVDKFGDKRIKQNLAYSLAKQKEGKVKTNFVGYLAKAIEEDWGSGWE | ≥ 0.43 |
| HMGGEEKALLFGDVDIREAGEITQRLEQAEIPYELRGDGSSIFVPRSRVMEARMMISADGLL | -0.901 |
| HMQNNKITIYISGAVNRPGIVTIESDKRLYDAVELLGGTTKEADLNGVNLSVRLEDEQHYIIPKIGEA | -0.491 |
| HMGKEDISQINKLYQNQILDYETYIDTLNSFNIDTKSKDFKNLLDLFIKKSISFETFNKGIINIHNKS | -1.01 |
| HMALYSEQVSEIEKALMSLPPKYQLVMLLLYAEDLKYEQIAEILDEPIGTVKTKIHRARKILKERF | -0.0112 |
| HMESLGEKIKNIRISNNLKQSELADILHISEKTISSWENNRTTPDLNMIYKISNYFKKSFYYLISDDYI | -0.283 |
| HMTSVQDLLRNGDRVGYQNGSTVKYWLEEMGFHKKDLLGYVTVEEYAEALQRGSGNGGVSAIVD | -1.7 |
| HMAFAQMAQEAAKGKDDFNDLRQEMEAVIKEQPHILLMAQFGQNPYEIAYQEAKRRKAQDQQQQQ | -0.805 |
| HMNKNQIGTNAGIVWKLLSDNVHWEYDKLKHASGLSDRDLNAAIGWLAREDKIDFDIDEQHDRLFL | -0.255 |
| HMSLDTASDKELLGLIVSEPIATRVLDAFRTLDATLFRTTPAELAAAAGVSSEHAQKIKAVAEIAARMLKP | -0.363 |
| HMKDLTAIKGVGEFFAKKLSQAGYQSITNLTDVNAKRLQADTGIPLPIAARIIKEAQSLIAET | -0.00834 |
| HMSDESRAEIVSSAKRLFQQYGYKKTTVSDIAKAMGKVKSAIYYYFPDKESLLRAVIDEEVG | 0.132 |
| HMHGSSSTVPPVKGLSFEQARLTLAENDLTVEISDSIYDRNARPGTVVESWPRAGSVVKQGRQVYVTVTAF | -0.685 |
| HMSHISLGQRYKIEGYLQINLKRTQIAKEIGLPKKTVNQEIKRNSNPQTGIYKAEEAHQLYLDRMQKKRK | 0.426 |
